Measured values: US20060021091, “Maize bZIP transcription factors and genes encoding the same and use thereof” (published 2006)

Key:
Conditions in all cases: tags: GST (pGEX4T-1); label: 32P 5' end (EMSA); annealed oligos with 3-nt overhangs, ligated as 4mer
ABP9 [1] = target: T1, ABP9 (Zea mays); test: EMSA; 25 mM HEPES-KOH pH 7.6, 50 mM KCl, 10% glycerol, DTT, on ice
T1 chain: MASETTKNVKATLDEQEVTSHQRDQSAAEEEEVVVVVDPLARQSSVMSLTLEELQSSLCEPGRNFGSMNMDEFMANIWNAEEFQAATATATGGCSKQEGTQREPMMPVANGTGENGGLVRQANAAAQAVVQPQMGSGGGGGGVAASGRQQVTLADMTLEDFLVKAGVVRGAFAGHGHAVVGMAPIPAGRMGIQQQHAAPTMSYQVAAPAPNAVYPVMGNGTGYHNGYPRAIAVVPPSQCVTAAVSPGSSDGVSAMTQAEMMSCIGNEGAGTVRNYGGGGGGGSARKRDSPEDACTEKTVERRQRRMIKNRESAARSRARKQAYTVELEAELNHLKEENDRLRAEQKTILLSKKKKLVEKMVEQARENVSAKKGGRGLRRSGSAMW
Experimental: (§1) Add 4 μl of 5×binding buffer (125 mM HEPES-KOH pH7.6, 50% glycerol, 250 mM KC1). Add 4 μg (9 μl) of each of the proteins ABP2, ABP4, ABP9 and GST. Add 1 μl of 1M DTT, 1 μl of probe of the above-labeled ABRE (or InABRE) and 4 μl of H₂O. Incubate on ice for 30 minutes. Add 3 μl of sample buffer (0.025% bromophenol blue in sterile H₂O) and perform polyacrylamide gel eletrophoresis analysis.
(§2) Set up the gel mixture of 9 ml of 30% acrylamide, 5 ml of 10×eletrophoresis buffer (142.7 g/L glycin, 3.92 g/L EDTA, 30.28 g/L Tris), 2.5 ml of 50% glycerol, 33 ml of deionized water, 400 μl of 10% APS, and 25 μl of TEMED. After completion of polymerization, perfom gel eletrophoresis with 1×eletrophoresis buffer, including pre-running for 10 minutes (300V), loading the samples and eletrophoresis for 1 hour (300V). Stick the gel with filter paper to peel off. Seal the peeled gel with Saran wrap and expose to X ray film for 1 hour. Wash the film, develop for 2 minutes and fix for 5 minutes. […] This means that the products of the genes ABP2, ABP4, and ABP9 also have the ABRE binding specificity in vitro.

ABP2 [2] = target: T2, ABP2 (Zea mays); test: as above
T2 chain: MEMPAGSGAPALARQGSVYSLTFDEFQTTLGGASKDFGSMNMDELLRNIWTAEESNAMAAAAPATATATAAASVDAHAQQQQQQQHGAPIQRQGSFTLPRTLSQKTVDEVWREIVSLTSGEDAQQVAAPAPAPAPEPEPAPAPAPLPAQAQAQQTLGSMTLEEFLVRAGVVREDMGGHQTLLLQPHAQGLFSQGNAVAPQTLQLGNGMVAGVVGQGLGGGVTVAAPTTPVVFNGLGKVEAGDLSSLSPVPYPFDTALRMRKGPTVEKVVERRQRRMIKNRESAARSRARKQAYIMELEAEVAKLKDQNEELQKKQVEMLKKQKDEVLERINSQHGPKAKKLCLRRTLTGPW
Experimental: as §1, §2

ABP4 [3] = target: T3, ABP4 (Zea mays); test: as above
T3 chain: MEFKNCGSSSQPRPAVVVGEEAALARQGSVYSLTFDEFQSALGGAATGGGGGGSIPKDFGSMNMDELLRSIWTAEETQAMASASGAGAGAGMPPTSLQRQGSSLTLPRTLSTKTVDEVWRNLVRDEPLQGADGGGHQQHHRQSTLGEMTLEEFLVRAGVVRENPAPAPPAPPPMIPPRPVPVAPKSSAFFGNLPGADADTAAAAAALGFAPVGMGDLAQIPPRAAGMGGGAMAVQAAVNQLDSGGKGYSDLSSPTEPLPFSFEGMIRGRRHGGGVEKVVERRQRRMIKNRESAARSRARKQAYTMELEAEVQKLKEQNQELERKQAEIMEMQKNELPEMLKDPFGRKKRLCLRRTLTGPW
Experimental: as §1, §2

ABP9 [4] = target: T1, ABP9; test: EMSA; no retarded band
Experimental: as §1, §2

ABP2 [5] = target: T2, ABP2; test: EMSA; no retarded band
Experimental: as §1, §2

ABP4 [6] = target: T3, ABP4; test: EMSA; no retarded band
Experimental: as §1, §2

Measured: binding result

B1: ABRE (dsDNA)
DNA 1: GAAGTCCACGTGGAGGTGG
DNA 2: TCCCACCTCCACGTGGACT
binds: ABP9 [1] | ABP2 [2] | ABP4 [3]

B2: mABRE (dsDNA)
DNA 1: GAAGTAACATGTTCGGTGG
DNA 2: TCCCACCGAACATGTTACT
no binding: ABP9 [4] | ABP2 [5] | ABP4 [6]
